Article PMC9133036 (Nature Communications, 2022)

Biological target: T1, full-length wild-type human OX2R (pCDNA3, HEK293) (human) (UniProt O43614)
T1 sequence: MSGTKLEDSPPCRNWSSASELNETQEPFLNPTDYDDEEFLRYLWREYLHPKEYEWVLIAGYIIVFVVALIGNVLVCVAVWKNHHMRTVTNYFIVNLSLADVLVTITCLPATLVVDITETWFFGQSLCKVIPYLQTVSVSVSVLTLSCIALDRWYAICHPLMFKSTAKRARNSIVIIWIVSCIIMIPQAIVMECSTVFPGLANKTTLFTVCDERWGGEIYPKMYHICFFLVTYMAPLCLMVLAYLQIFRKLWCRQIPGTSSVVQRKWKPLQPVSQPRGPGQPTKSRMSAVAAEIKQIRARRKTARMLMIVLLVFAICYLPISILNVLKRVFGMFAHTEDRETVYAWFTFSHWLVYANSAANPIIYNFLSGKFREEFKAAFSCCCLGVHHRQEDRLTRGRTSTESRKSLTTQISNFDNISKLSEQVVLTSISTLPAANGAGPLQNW

Sequence of orexin B (O43612 70-97): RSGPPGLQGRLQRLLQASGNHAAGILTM

Gq-mediated inositol phosphate (IP) accumulation in HEK293 cells transfected with OX2R and Gαq; EC50 of orexin B: 8.2 nM
Substance: orexin B (from UniProt O43612 70-97) (peptide)
